Reference: publication PMC11524007

How the values were obtained:
[1] = target: HIF1β (human (endogenous in LS174T and in patient renal tissue)) (UniProt P27540); assay: FRET or BRET; FuncOmap: Ef computed for each coincidence region of the two-site aFRET/FLIM images, HIF1β/HIF2α in ccRCC core B5; Otsu thresholding; Ef below 4% regarded as non-interactive
[2] = target: HIF1β (human (endogenous in LS174T and in patient renal tissue)) (UniProt P27540); assay: FRET or BRET; two-site aiFRET read by frequency-domain FLIM on tissue microarray cores (normal renal tissue B7, ccRCC cores A1 and A2); median Ef over 10-20 hand-picked regions of interest; donor ATTO488 on HIF1β or PD-1, acceptor Alexa594 (TSA) on HIF2α or PD-L1; Ef below 4% regarded as non-interactive
[3] = target: HIF1β (human (endogenous in LS174T and in patient renal tissue)) (UniProt P27540); assay: FRET or BRET; two-site amplified FRET (aFRET) read by frequency-domain FLIM on PFA-fixed, permeabilised LS174T cells under hypoxia (1% O2, 48 h); donor ATTO488 on anti-HIF-1β, acceptor Alexa594 (TSA) on anti-HIF-2α; Ef below 4% regarded as non-interactive
[4] = target: HIF1β (human (endogenous in LS174T and in patient renal tissue)) (UniProt P27540); assay: FRET or BRET; FuncOmap: Ef computed for each coincidence region of the two-site aiFRET/FLIM images of tissue microarray cores (HIF1β/HIF2α: B7, A5; PD-1/PD-L1: B7, B5, A5); Otsu thresholding; Ef below 4% regarded as non-interactive
[5] = target: PD-1 (human (endogenous in patient renal tissue)) (UniProt Q15116); assay: FRET or BRET; two-site aiFRET read by frequency-domain FLIM on tissue microarray cores (normal renal tissue B7, ccRCC cores A1 and A2); median Ef over 10-20 hand-picked regions of interest; donor ATTO488 on HIF1β or PD-1, acceptor Alexa594 (TSA) on HIF2α or PD-L1; Ef below 4% regarded as non-interactive
[6] = target: PD-1 (human (endogenous in patient renal tissue)) (UniProt Q15116); assay: FRET or BRET; FuncOmap: Ef computed for each coincidence region of the two-site aiFRET/FLIM images of tissue microarray cores (HIF1β/HIF2α: B7, A5; PD-1/PD-L1: B7, B5, A5); Otsu thresholding; Ef below 4% regarded as non-interactive

Sequence of PD-1 (human (endogenous in patient renal tissue)) (Q15116 25-288): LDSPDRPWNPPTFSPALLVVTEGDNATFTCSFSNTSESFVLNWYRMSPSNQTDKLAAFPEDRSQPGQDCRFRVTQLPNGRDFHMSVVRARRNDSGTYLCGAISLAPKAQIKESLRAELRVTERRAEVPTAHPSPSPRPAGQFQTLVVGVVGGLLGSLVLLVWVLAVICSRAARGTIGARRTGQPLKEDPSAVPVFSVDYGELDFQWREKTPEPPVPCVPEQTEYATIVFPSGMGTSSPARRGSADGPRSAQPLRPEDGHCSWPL
Sequence of HIF1β (human (endogenous in LS174T and in patient renal tissue)) (P27540 whole entry): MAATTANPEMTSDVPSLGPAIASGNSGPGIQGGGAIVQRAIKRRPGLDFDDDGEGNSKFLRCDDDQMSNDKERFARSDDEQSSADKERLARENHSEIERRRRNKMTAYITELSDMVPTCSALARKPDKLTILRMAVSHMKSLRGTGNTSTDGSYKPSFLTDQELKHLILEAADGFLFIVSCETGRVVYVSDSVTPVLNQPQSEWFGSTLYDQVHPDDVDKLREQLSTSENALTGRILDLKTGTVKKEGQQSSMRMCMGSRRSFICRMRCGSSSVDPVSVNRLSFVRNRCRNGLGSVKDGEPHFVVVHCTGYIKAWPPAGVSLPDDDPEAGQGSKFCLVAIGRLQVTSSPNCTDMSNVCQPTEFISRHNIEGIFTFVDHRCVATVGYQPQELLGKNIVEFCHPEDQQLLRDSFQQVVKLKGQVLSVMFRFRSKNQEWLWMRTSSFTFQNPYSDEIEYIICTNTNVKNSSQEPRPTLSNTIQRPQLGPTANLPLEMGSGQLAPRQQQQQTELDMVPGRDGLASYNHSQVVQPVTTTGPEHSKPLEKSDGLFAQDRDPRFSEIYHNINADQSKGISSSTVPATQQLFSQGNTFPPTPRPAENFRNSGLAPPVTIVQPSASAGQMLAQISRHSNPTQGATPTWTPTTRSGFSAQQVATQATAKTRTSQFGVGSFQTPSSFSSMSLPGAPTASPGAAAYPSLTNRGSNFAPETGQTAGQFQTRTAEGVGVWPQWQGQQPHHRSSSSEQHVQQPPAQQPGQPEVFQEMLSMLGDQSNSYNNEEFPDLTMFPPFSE
Sequence of PD-L1 (Q9NZQ7 19-290): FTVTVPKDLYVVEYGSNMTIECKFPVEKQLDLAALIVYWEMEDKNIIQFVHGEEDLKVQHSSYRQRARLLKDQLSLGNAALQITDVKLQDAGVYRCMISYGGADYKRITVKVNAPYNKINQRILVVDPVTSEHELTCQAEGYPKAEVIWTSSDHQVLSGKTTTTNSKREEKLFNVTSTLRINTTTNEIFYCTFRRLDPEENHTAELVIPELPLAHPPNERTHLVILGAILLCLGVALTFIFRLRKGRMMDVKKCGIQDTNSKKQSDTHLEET

Substance “HIF2α (from UniProt Q99814 1-870) (natural protein)” has an Ef, core B5, region 61 [1] of 0%, an Ef, core B5, region 80 [1] of 0% and an Ef, core B5, region 103 [1] of 0%. For the same substance, the Ef, core B5, region 140 [1] was 0%, the Ef, core B5, region 162 [1] was 0% and the Ef, core B5, region 167 [1] was 0%. It also gave an Ef, core B5, region 174 [1] of 0%, an Ef, core B5, region 198 [1] of 0% and an Ef, core B5, region 199 [1] of 0%. The Ef, core B5, region 220 [1] was 0%, the Ef, core B5, region 230 [1] was 0% and the Ef, core B5, region 242 [1] was 0%. It also gave an Ef, core B5, region 246 [1] of 0%, an Ef, core B5, region 277 [1] of 0% and an Ef, core B5, region 318 [1] of 0%. The Ef, core B5, region 431 [1] was 0%, the Ef, core B5, region 452 [1] was 0% and the Ef, core B5, region 585 [1] was 0%. For the same substance, the Ef, core B5, region 586 [1] was 0%, the Ef, core B5, region 592 [1] was 0% and the Ef, core B5, region 600 [1] was 0%. For the same substance, the Ef, core B5, region 601 [1] was 0%, the Ef, core B5, region 632 [1] was 0% and the Ef, core B5, region 659 [1] was 0%. The Ef, core B5, region 669 [1] was 0%, the median Ef, ccRCC core A1 [2] was 13.6% and the median Ef, ccRCC core A2 [2] was 9.3%. It also gave a median Ef, normal tissue [2] of 6.7%, a median FRET efficiency (hypoxia) [3] of 7.75% and an Ef, core A5, region 12 [4] of 12.2%. It also gave an Ef, core A5, region 78 [4] of 13.5%, an Ef, core A5, region 83 [4] of 12.7% and an Ef, core A5, region 131 [4] of 13.5%. It also gave an Ef, core A5, region 168 [4] of 12.2%, an Ef, core A5, region 187 [4] of 12.2% and an Ef, core A5, region 189 [4] of 16%. It also gave an Ef, core A5, region 235 [4] of 15.4%, an Ef, core A5, region 276 [4] of 12.2% and an Ef, core A5, region 294 [4] of 13.5%. For the same substance, the Ef, core A5, region 383 [4] was 16%, the Ef, core A5, region 400 [4] was 12.2% and the Ef, core A5, region 531 [4] was 13.5%. It also gave an Ef, core A5, region 619 [4] of 13.5%, an Ef, core A5, region 679 [4] of 12.2% and an Ef, core A5, region 733 [4] of 11.4%. The Ef, core A5, region 817 [4] was 13.5%, the Ef, core A5, region 822 [4] was 12.2% and the Ef, core A5, region 826 [4] was 12.2%. It also gave an Ef, core A5, region 829 [4] of 16%, an Ef, core A5, region 1273 [4] of 12.2% and an Ef, core A5, region 1299 [4] of 16%. For the same substance, the Ef, core A5, region 1302 [4] was 19.8%, the Ef, core A5, region 1307 [4] was 21.1% and the Ef, core A5, region 1308 [4] was 14.8%. The Ef, core B7, region 64 [4] was 0%, the Ef, core B7, region 231 [4] was 0% and the Ef, core B7, region 402 [4] was 0%. For the same substance, the Ef, core B7, region 632 [4] was 0%, the Ef, core B7, region 633 [4] was 0% and the Ef, core B7, region 634 [4] was 0%. The Ef, core B7, region 635 [4] was 0%, the Ef, core B7, region 636 [4] was 0% and the Ef, core B7, region 637 [4] was 0%. The Ef, core B7, region 638 [4] was 0%, the Ef, core B7, region 639 [4] was 0% and the Ef, core B7, region 640 [4] was 0%. The Ef, core B7, region 641 [4] was 0%, the Ef, core B7, region 657 [4] was 0% and the Ef, core B7, region 662 [4] was 7.66%. It also gave an Ef, core B7, region 664 [4] of 0%, an Ef, core B7, region 672 [4] of 4.95% and an Ef, core B7, region 685 [4] of 0%. It also gave an Ef, core B7, region 686 [4] of 0%, an Ef, core B7, region 712 [4] of 0% and an Ef, core B7, region 719 [4] of 0%. The Ef, core B7, region 729 [4] was 0%, the Ef, core B7, region 754 [4] was 0% and the Ef, core B7, region 943 [4] was 0%. It also gave an Ef, core B7, region 950 [4] of 0%.

Work on “PD-L1 (from UniProt Q9NZQ7 19-290) (ligand)” yielded a median Ef, normal tissue [5] of 5.24%, an Ef, core A5, region 57 [6] of 0% and an Ef, core A5, region 63 [6] of 10.9%. The Ef, core A5, region 92 [6] was 8.6%, the Ef, core A5, region 110 [6] was 8.34% and the Ef, core A5, region 186 [6] was 8.16%. It also gave an Ef, core A5, region 421 [6] of 5.03%, an Ef, core A5, region 448 [6] of 7.7% and an Ef, core A5, region 482 [6] of 9.31%. It also gave an Ef, core A5, region 505 [6] of 7.72%, an Ef, core A5, region 564 [6] of 8.82% and an Ef, core A5, region 639 [6] of 11.2%. It also gave an Ef, core A5, region 653 [6] of 12.1%, an Ef, core A5, region 812 [6] of 16.7% and an Ef, core A5, region 823 [6] of 9.22%. It also gave an Ef, core A5, region 929 [6] of 8.25%, an Ef, core A5, region 949 [6] of 6.49% and an Ef, core A5, region 1053 [6] of 12.9%. It also gave an Ef, core A5, region 1064 [6] of 10.6%, an Ef, core A5, region 1113 [6] of 4.28% and an Ef, core A5, region 1241 [6] of 6.86%. For the same substance, the Ef, core A5, region 1250 [6] was 10.1%, the Ef, core A5, region 1255 [6] was 8.24% and the Ef, core A5, region 1274 [6] was 8.32%. It also gave an Ef, core A5, region 1360 [6] of 6.13%, an Ef, core A5, region 1405 [6] of 12.4% and an Ef, core B5, region 81 [6] of 21.8%. The Ef, core B5, region 107 [6] was 30.6%, the Ef, core B5, region 176 [6] was 28.4% and the Ef, core B5, region 249 [6] was 23.6%. For the same substance, the Ef, core B5, region 261 [6] was 15.7%, the Ef, core B5, region 373 [6] was 24% and the Ef, core B5, region 546 [6] was 24.8%. It also gave an Ef, core B5, region 551 [6] of 16.4%, an Ef, core B5, region 586 [6] of 17% and an Ef, core B5, region 622 [6] of 23.1%. It also gave an Ef, core B5, region 774 [6] of 25.1%, an Ef, core B5, region 841 [6] of 29.4% and an Ef, core B5, region 930 [6] of 28.3%. For the same substance, the Ef, core B5, region 1104 [6] was 21.1%, the Ef, core B5, region 1155 [6] was 20.4% and the Ef, core B5, region 1187 [6] was 0%. It also gave an Ef, core B5, region 1246 [6] of 15.8%, an Ef, core B5, region 1288 [6] of 26.3% and an Ef, core B5, region 1500 [6] of 28.5%. It also gave an Ef, core B5, region 1612 [6] of 13.9%, an Ef, core B5, region 1772 [6] of 20.8% and an Ef, core B5, region 1811 [6] of 24%. It also gave an Ef, core B5, region 1878 [6] of 18.1%, an Ef, core B5, region 2043 [6] of 20.4% and an Ef, core B5, region 2232 [6] of 28.3%. It also gave an Ef, core B7, region 24 [6] of 21.5%, an Ef, core B7, region 67 [6] of 14.2% and an Ef, core B7, region 102 [6] of 16.1%. The Ef, core B7, region 197 [6] was 21.2%, the Ef, core B7, region 233 [6] was 48.4% and the Ef, core B7, region 299 [6] was 16.3%. It also gave an Ef, core B7, region 356 [6] of 20%, an Ef, core B7, region 384 [6] of 16.5% and an Ef, core B7, region 442 [6] of 19.1%. It also gave an Ef, core B7, region 548 [6] of 23.4%, an Ef, core B7, region 561 [6] of 12.8% and an Ef, core B7, region 648 [6] of 26.6%. The Ef, core B7, region 772 [6] was 14.2%, the Ef, core B7, region 905 [6] was 12% and the Ef, core B7, region 984 [6] was 22.3%. It also gave an Ef, core B7, region 1009 [6] of 28.9%, an Ef, core B7, region 1273 [6] of 23.4% and an Ef, core B7, region 1454 [6] of 29.9%. For the same substance, the Ef, core B7, region 1657 [6] was 18.1%, the Ef, core B7, region 1711 [6] was 25.7% and the Ef, core B7, region 1750 [6] was 18.1%. It also gave an Ef, core B7, region 1861 [6] of 27.4%, an Ef, core B7, region 1919 [6] of 14.7% and an Ef, core B7, region 1932 [6] of 26.4%. It also gave an Ef, core B7, region 1973 [6] of 28.4%.
